Test results as given in US20210024651A1 (published 2021).

B1: Fc-modified anti-HER3 antibody clone 10D1 comprising GASD substitutions in CH2 region (antibody, human IgG1, kappa)
heavy: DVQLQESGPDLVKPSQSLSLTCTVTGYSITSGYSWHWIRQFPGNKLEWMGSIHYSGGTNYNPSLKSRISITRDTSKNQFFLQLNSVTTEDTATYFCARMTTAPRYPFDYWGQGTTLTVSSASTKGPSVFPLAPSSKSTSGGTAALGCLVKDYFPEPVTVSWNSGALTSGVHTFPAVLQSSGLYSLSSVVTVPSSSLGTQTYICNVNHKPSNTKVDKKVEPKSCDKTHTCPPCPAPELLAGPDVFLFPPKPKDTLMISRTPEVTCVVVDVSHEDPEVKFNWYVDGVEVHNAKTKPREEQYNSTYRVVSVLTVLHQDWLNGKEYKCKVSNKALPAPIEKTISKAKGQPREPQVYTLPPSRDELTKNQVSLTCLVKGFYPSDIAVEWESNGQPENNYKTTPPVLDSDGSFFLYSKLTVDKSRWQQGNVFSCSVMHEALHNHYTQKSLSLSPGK
light: DIVMTQSQKFMSTSVGDRVSVTCKASQIVGSNVAWYQQKPGQSPKPLIYSASYRYSGVPDRFTASGSGTDFTLTITNVQSEDLAEYFCQQYSSHPLTFGAGTKLELKRTVAAPSVFIFPPSDEQLKSGTASVVCLLNNFYPREAKVQWKVDNALQSGNSQESVTEQDSKDSTYSLSSTLTLSKADYEKHKVYACEVTHQGLSSPVTKSFNRGEC
notes: also called 10D1 GASD variant
B2: anti-HER3 clone 10D1 IgG1 (antibody)
heavy: not shown
light: B1 light
notes: Mouse variable regions on human IgG1/kappa constant regions (chimeric); also called 10D1P; 10D1 (parental)
B3: 10D1F.FcA (anti-HER3 clone 10D1_c89 IgG1) (antibody, V domains shown)
VH: QVQLQESGPGLVKPSQTLSLTCTVSGYSITSGYSWHWIRQHPGKGLEWIGSIRYSGGTDYNPSLKSLVTISADTSKNQFSLKLSSVTAADTAVYYCARMTTAPWYPFDYWGQGTTVTVSS
VL: DIQMTQSPSSVSASVGDRVTITCKASQIVGSNVAWYQQKPGKAPEPLIYSASYLYSGVPSRFSGSGSGTDFTLTISSLQPEDFATYYCQQYSSHPLTFGQGTKLEIKR
notes: also called 10D1F.A

Assays:
[1] = biological target: T1, His-tagged FcγRIIIa (V158) (UniProt P08637 17-208); experiment: BLI, His-tagged FcγRIIIa (V158) captured on HIS1K tips, antibody in solution
T1 construct: not shown: His tag
Method: Briefly, anti-Penta-HIS (HIS1K) coated biosensor tips (Pall ForteBio, USA) were used to capture His-tagged FcγRIIIa (V158) (270 nM) for 120 s. All measurements were performed at 25° C. with agitation at 1000 rpm. Association kinetic measurements for antigen binding were performed by incubating anti-HER3 antibodies at different concentrations (500 nM to 15.6 nM) for 60 s, followed by a 120 s dissociation time by transferring the biosensors into assay buffer (pH 7.2) containing wells. Sensograms were referenced for buffer effects and then fitted using the Octet QK384 user software (Pall ForteBio, USA). Kinetic responses were subjected to a global fitting using a one site binding model to obtain values for association (Kₒₙ), dissociation (Koff) rate constants and the equilibrium dissociation constant (KD). Only curves that could be reliably fitted with the software (R²>0.90) were included in the analysis.

mouse HER3 = biological target: T2, mouse HER3 (mouse, UniProt Q61526 20-641, limits assumed); experiment: ELISA, plate-coated target, antibody titrated from 10 µg/ml
T2 construct: also called mouse homologue of HER3; M. musculus HER3

rat HER3 = biological target: T3, rat HER3 (rat, UniProt Q62799 20-643, limits assumed); experiment: as above
T3 construct: also called rat homologue of HER3; R. norvegicus HER3
T3 sequence (Q62799 20-643 limits assumed): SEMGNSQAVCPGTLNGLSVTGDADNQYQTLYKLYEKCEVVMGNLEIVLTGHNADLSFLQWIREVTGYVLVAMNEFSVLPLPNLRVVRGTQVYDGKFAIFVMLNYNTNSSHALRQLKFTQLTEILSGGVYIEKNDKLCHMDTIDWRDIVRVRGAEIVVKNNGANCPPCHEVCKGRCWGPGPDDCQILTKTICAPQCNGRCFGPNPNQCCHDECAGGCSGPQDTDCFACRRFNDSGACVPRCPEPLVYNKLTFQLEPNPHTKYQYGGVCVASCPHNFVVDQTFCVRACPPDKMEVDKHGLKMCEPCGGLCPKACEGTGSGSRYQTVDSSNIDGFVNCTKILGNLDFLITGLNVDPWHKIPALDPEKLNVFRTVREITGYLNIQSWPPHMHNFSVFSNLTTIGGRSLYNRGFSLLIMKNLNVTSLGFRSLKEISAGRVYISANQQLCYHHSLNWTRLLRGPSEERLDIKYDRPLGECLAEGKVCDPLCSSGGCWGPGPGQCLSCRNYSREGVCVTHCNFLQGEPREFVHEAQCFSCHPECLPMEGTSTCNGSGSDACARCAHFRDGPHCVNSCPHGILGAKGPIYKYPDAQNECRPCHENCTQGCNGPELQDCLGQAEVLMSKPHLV

T2 sequence (Q61526 20-641 limits assumed): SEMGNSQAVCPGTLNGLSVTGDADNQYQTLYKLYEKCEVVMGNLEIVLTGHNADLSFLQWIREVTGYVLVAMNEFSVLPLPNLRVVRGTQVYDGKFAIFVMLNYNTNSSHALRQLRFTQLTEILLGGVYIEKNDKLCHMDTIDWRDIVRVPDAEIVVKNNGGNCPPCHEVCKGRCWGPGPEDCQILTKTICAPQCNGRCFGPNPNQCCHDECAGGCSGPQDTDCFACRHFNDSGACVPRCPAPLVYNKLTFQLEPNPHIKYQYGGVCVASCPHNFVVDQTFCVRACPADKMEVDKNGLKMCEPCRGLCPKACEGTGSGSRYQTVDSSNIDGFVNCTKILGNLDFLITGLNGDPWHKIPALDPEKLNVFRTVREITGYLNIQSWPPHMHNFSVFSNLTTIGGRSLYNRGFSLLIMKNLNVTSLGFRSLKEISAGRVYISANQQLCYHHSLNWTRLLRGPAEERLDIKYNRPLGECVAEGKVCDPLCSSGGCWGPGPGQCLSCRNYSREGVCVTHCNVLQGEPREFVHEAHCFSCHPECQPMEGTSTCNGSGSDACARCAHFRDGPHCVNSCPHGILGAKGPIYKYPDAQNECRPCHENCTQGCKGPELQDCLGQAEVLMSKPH

| Binder | binding result [1] | binding result (mouse HER3) | binding result (rat HER3) |
| --- | --- | --- | --- |
| B1 | binds |  |  |
| B2 | binds | binds | binds |
| B3 |  | binds | binds |
